Data reported in patent US20220195058A1 (Regeneron, published 2022).
Read-outs that look alike come from different tables or passages of the source.

B1: REGN6581 (antibody, human IgG4 S228P, kappa, V domains shown)
VH: QVQLQESGPGLVKPSETLSLTCTVSGASISTYYWSWIRQPPGKGLEWIGYIYYSGTTNYNPSLKSRVTISVDTSKNQFSLKLSSVTAADTAVYYCARDRGGYDGEWGQGTLVTVSS
VL: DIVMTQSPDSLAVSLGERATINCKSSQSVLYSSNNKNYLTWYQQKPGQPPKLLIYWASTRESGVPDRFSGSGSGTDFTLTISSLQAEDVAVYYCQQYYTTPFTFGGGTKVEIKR
notes: Bivalent human IgG4; also called bivalent anti-R5381 mAb; anti-idiotype antibody
B2: REGN9037 (antibody, human IgG4 S228P, kappa)
heavy: QVQLQESGPGLVKPSETLSLTCTVSGASISTYYWSWIRQPPGKGLEWIGYIYYSGTTNYNPSLKSRVTISVDTSKNQFSLKLSSVTAADTAVYYCARDRGGYDGEWGQGTLVTVSSASTKGPSVFPLAPCSRSTSESTAALGCLVKDYFPEPVTVSWNSGALTSGVHTFPAVLQSSGLYSLSSVVTVPSSSLGTKTYTCNVDHKPSNTKVDKRVESKYGPPCPPCPAPEFLGGPSVFLFPPKPKDTLMISRTPEVTCVVVDVSQEDPEVQFNWYVDGVEVHNAKTKPREEQFNSTYRVVSVLTVLHQDWLNGKEYKCKVSNKGLPSSIEKTISKAKGQPREPQVYTLPPSQEEMTKNQVSLTCLVKGFYPSDIAVEWESNGQPENNYKTTPPVLDSDGSFFLYSRLTVDKSRWQEGNVFSCSVMHEALHNRFTQKSLSLSPGK
chain: not shown
light: not shown
notes: Monovalent (one-armed) human IgG4: one full heavy chain, one light chain and one truncated heavy chain (Fc); also called one-armed anti-R5381 antibody; monovalent anti-R5381 mAb
B3: REGN9035 (antibody, human IgG4 S228P, kappa)
heavy: QVQLVESGGGVVQPGRSLRLSCAASGFTFSSYGMHWVRQAPGKGLEWVALIWFDGGYKYYADSVKGRFTISRDNSKNTLYLQMNSLRADDTAVYYCARGSAAAGHVPFDYWGQGILVTVSSASTKGPSVFPLAPCSRSTSESTAALGCLVKDYFPEPVTVSWNSGALTSGVHTFPAVLQSSGLYSLSSVVTVPSSSLGTKTYTCNVDHKPSNTKVDKRVESKYGPPCPPCPAPEFLGGPSVFLFPPKPKDTLMISRTPEVTCVVVDVSQEDPEVQFNWYVDGVEVHNAKTKPREEQFNSTYRVVSVLTVLHQDWLNGKEYKCKVSNKGLPSSIEKTISKAKGQPREPQVYTLPPSQEEMTKNQVSLTCLVKGFYPSDIAVEWESNGQPENNYKTTPPVLDSDGSFFLYSRLTVDKSRWQEGNVFSCSVMHEALHNRFTQKSLSLSPGK
chain: not shown
light: not shown
notes: as for B2
B4: REGN6580 (antibody, human IgG4 S228P, kappa, V domains shown)
VH: QVQLVESGGGVVQPGRSLRLSCAASGFTFSSYGMHWVRQAPGKGLEWVALIWFDGGYKYYADSVKGRFTISRDNSKNTLYLQMNSLRADDTAVYYCARGSAAAGHVPFDYWGQGILVTVSS
VL: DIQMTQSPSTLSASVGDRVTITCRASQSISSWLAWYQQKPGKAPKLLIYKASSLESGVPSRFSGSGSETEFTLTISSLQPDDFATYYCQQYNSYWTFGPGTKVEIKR
notes: as for B1
B5: R5381 (antibody, V domains shown)
VH: QVQLVQSGAEVKKPGASVTVSCKASGYTFTDYYMHWVRQAPGQGLEWMGWIKPNSGGTNSAQRFQGRITMTWDTSISTAYMELSRLRSDDTAVYYCSRGGPVMNYYYYYGMDVWGQGTTVTVSS
VL: NIQMTQSPSSLSASVGDRVTITCRASQSIDSYLNWYQQKPGKAPKLLIYVASSLQSGVPSRFSGSGSGKDFTLTISSLQPEDFATYYCQQSYSIPTFGQGTRLEIKR

How the values were obtained:
[1] = biological target: REGN1945; test: cell-based or functional assay
[2] = biological target: B5; test: cell-based or functional assay
[3] = biological target: B5; test: cell-based or functional assay; remark: listed apart in the source
[4] = biological target: B5; test: blocking ELISA: antibody pre-bound to 95 pM Biotin-R5381, binding to coated hNPR1.ecto.mmh read
Procedure: After 1 hour, incubation at RT, the pre-bind reaction mix was transferred to microtiter plates coated with hNPR1.ecto.mmh. The microtiter plates were incubated at RT for 1 hour and then washed with plate washing solution. […] The plates were incubated with detection protein for 1 hour at RT and then washed with plate washing solution. The assay plates were developed with TMB colorimetric substrates according to the manufacturer's recommended procedure.
The absorbance at 450 nm for each well was recorded and plotted as the function of the concentration of antibody. Data was analyzed in GraphPad Prism software using a four-parameter logistic equation over an 11-point dose response curve and IC₅₀ values were calculated.

[5] = biological target: T1, H2aM22033N; test: SPR Biacore T200, H2aM22033N captured via anti-mouse Fc, analyte injected, 25 C, pH 7.4
T1 construct: also called parental hybridoma of R5381
Procedure: (§1) All binding studies were performed in 10 mM HEPES, 150 mM NaCl, 3 mM EDTA, and 0.05% v/v Surfactant Tween-20, pH 7.4 (HBS-ET) running buffer at 25° C. and 37° C. The Biacore CM5 sensor chip surface was first derivatized by amine coupling with anti-mouse Fc specific antibody (GE Healthcare, # BR100838) to capture H2aM22033N. […] The dissociation of different mAbs bound to H2aM22033N was monitored for 10 minutes in HBS-ET running buffer. At the end of each cycle, the H2aM22033N capture surface was regenerated using a 60 sec injection of 10 mM Glycine-HCl, pH 1.5. The association rate (kₐ) and dissociation rate (kd) were determined by fitting the real-time binding sensorgrams to a 1:1 binding model with mass transport limitation using Scrubber 2.0c curve-fitting software. Binding dissociation equilibrium constant (KD) and dissociative half-life (t½) were calculated from the kinetic rates as:

[6] = biological target: T1, H2aM22033N; test: SPR Biacore T200, H2aM22033N captured via anti-mouse Fc, analyte injected, 37 C, pH 7.4
Procedure: as §1

[7] = biological target: T1, H2aM22033N; test: SPR Biacore 4000, H2aM22033N captured via anti-mouse Fc, 37 C, association pH 7.4, dissociation pH 7.4
Procedure: (§2) All binding studies were performed at 37° C. using four running buffers, (i) PBS, 0.05% v/v Surfactant Tween-20, pH 7.4 (PBS-T-pH 7.4), (ii) PBS, 0.05% v/v Surfactant Tween-20, pH 6.5 (PBS-T-pH 6.5), (iii) PBS, 0.05% v/v Surfactant Tween-20, pH 6.0 (PBS-T-pH 6.0), and (iv) PBS, 0.05% v/v Surfactant Tween-20, pH 5.0 (PBS-T-pH 5.0).
(§3) The dissociation rate constants (kd) in four pH running buffers were determined by fitting the real-time binding sensorgrams to a 1:1 binding model using Scrubber 2.0c curve-fitting software. The dissociative half-life (t½) was calculated from the kd values as:

[8] = biological target: T1, H2aM22033N; test: SPR Biacore 4000, H2aM22033N captured via anti-mouse Fc, 37 C, association pH 7.4, dissociation pH 5.0
Procedure: as §2, §3

[9] = biological target: T1, H2aM22033N; test: SPR Biacore 4000, H2aM22033N captured via anti-mouse Fc, 37 C, association pH 7.4, dissociation pH 6.5
Procedure: as §2, §3

[10] = biological target: T1, H2aM22033N; test: SPR Biacore 4000, H2aM22033N captured via anti-mouse Fc, 37 C, association pH 7.4, dissociation pH 6.0
Procedure: as §2, §3

[11] = biological target: REGN1945; test: cell-based or functional assay; remark: listed apart in the source
[12] = biological target: B5; test: cell-based or functional assay; remark: listed apart in the source
[13] = biological target: T2, human NPR1 (hNPR1) with a C-term myc and FLAG tag, stably expressed on HEK293 cells (human, UniProt P16066 33-1061); test: cell-based or functional assay
T2 sequence: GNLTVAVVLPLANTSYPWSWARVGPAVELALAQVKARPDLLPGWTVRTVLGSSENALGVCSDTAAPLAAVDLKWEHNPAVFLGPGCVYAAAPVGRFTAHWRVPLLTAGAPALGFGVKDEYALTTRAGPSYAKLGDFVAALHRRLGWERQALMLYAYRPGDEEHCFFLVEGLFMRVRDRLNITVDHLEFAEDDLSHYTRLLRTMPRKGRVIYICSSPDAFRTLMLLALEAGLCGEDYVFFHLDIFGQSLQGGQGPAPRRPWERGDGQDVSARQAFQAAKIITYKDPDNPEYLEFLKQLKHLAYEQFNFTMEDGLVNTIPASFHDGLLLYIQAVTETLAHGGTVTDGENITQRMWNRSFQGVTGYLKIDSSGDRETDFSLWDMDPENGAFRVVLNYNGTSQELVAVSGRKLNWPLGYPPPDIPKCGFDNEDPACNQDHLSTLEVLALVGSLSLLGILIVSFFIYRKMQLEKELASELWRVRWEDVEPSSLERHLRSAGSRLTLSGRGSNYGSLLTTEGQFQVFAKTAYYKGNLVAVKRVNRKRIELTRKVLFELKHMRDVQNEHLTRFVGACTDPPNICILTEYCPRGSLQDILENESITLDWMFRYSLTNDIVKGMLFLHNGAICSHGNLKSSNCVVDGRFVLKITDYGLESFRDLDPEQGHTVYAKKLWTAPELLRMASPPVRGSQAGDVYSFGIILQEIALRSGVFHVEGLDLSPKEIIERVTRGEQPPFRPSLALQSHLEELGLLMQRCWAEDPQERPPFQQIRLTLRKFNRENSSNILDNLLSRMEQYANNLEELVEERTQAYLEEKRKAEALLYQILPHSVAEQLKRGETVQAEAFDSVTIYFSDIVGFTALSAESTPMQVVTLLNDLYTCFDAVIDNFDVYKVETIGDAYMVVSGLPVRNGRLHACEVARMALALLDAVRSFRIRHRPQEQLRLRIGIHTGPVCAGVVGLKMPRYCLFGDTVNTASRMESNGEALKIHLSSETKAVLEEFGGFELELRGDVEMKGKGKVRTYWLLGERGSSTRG

| Binder | C1q-CIC assay Final Value; 100 nM antibody + 100 nM antigen; Result Neg [1] | C1q-CIC assay Final Value; 1 uM antibody + 100 nM antigen; Result Neg [1] | IC50 of inhibition of 70 nM R5381-induced cGMP, 40 pM ANP [3] | IC50 of inhibition of 70 nM R5381-induced cGMP, 80 pM BNP [3] | IC50 of inhibition of 70 nM R5381-induced cGMP, no ligand [3] | Max Inh. (%) of 70 nM R5381-induced cGMP, 40 pM ANP [3] | Max Inh. (%) of 70 nM R5381-induced cGMP, 80 pM BNP [3] | Max Inh. (%) of 70 nM R5381-induced cGMP, no ligand [3] | % Blocking with 333.33 nM antibody [4] | IC50 [4] | 100 nM Ag Bound (RU) [5] | Kd [5] | koff [5] | kon [5] | t1/2 [5] | 100 nM Ag Bound (RU) [6] | Kd [6] | koff [6] | kon [6] | t1/2 [6] | also measured |
| --- | --- | --- | --- | --- | --- | --- | --- | --- | --- | --- | --- | --- | --- | --- | --- | --- | --- | --- | --- | --- | --- |
| B1 | 0.35 ug Eq/mL | 0.3 ug Eq/mL | 2.06e-08 M | 3.5e-08 M | 18 nM | 104% | 99% | 100% | 100% | 0.543 nM | 65 RU | 0.561 nM | 7.11e-05 s⁻¹ | 127000 M⁻¹ s⁻¹ | 163 min | 104 RU | 1.16 nM | 0.000367 s⁻¹ | 317000 M⁻¹ s⁻¹ | 31 min | C1q-CIC assay Final Value; 100 nM antibody + 100 nM antigen; Result Neg [2]: 0.65 ug Eq/mL; C1q-CIC assay Final Value; 1 uM antibody + 100 nM antigen; Result Neg [2]: 0.53 ug Eq/mL |
| B2 | 0.37 ug Eq/mL | 0.55 ug Eq/mL | 1.76e-08 M | 3.81e-08 M | 36.3 nM | 101% | 97% | 99% | 99% | 2.4 nM | 31 RU | 1.52 nM | 9.89e-05 s⁻¹ | 65100 M⁻¹ s⁻¹ | 117 min | 55 RU | 6.71 nM | 0.000738 s⁻¹ | 110000 M⁻¹ s⁻¹ | 16 min | C1q-CIC assay Final Value; 100 nM antibody + 100 nM antigen; Result Neg [2]: 0.64 ug Eq/mL; C1q-CIC assay Final Value; 1 uM antibody + 100 nM antigen; Result Neg [2]: 0.42 ug Eq/mL; koff [7]: 0.000867 s⁻¹; t1/2 [7]: 13 min; koff [8]: 0.000664 s⁻¹; t1/2 [8]: 17 min; koff [9]: 0.000792 s⁻¹; t1/2 [9]: 15 min; koff [10]: 0.000811 s⁻¹; t1/2 [10]: 14 min |
| B3 | – | – | 2.66e-08 M | 4.13e-08 M | 46 nM | 104% | 97% | 100% | 99.3% | 2.04 nM | 47 RU | 1.76 nM | 0.000132 s⁻¹ | 75100 M⁻¹ s⁻¹ | 87 min | 81 RU | 5.78 nM | 0.00086 s⁻¹ | 149000 M⁻¹ s⁻¹ | 13 min | C1q-CIC assay Final Value; 100 nM antibody + 100 nM antigen; Result Neg [11]: 0.15 ug Eq/mL; C1q-CIC assay Final Value; 1 uM antibody + 100 nM antigen; Result Neg [11]: 0.2 ug Eq/mL; C1q-CIC assay Final Value; 100 nM antibody + 100 nM antigen; Result Neg [12]: 0.18 ug Eq/mL; C1q-CIC assay Final Value; 1 uM antibody + 100 nM antigen; Result Neg [12]: 0.29 ug Eq/mL; koff [7]: 0.000996 s⁻¹; t1/2 [7]: 12 min; koff [8]: 0.0197 s⁻¹; t1/2 [8]: 0.6 min; koff [9]: 0.00142 s⁻¹; t1/2 [9]: 8 min; koff [10]: 0.00294 s⁻¹; t1/2 [10]: 3.9 min |
| B4 | – | – | 2.23e-08 M | 3.32e-08 M | 15.5 nM | 102% | 99% | 99% | 100% | 0.381 nM | 110 RU | 0.528 nM | 9.42e-05 s⁻¹ | 178000 M⁻¹ s⁻¹ | 123 min | 160 RU | 0.914 nM | 0.000424 s⁻¹ | 464000 M⁻¹ s⁻¹ | 27 min | C1q-CIC assay Final Value; 100 nM antibody + 100 nM antigen; Result Neg [11]: 0.11 ug Eq/mL; C1q-CIC assay Final Value; 1 uM antibody + 100 nM antigen; Result Neg [11]: 0.16 ug Eq/mL; C1q-CIC assay Final Value; 100 nM antibody + 100 nM antigen; Result Neg [12]: 0.22 ug Eq/mL; C1q-CIC assay Final Value; 1 uM antibody + 100 nM antigen; Result Neg [12]: 0.2 ug Eq/mL |
| B5 | – | – | – | – | – | – | – | – | – | – | – | – | – | – | – | – | – | – | – | – | cGMP accumulation (HTRF) EC50, no ligand [13]: 31.2 nM; cGMP accumulation (HTRF) EC50, with 40 pM ANP [13]: 2.07e-08 M; cGMP accumulation (HTRF) EC50, with 80 pM BNP [13]: 1.78e-09 M |
